According to article PMC314469, “Protein Interaction Networks by Proteome Peptide Scanning” (PLoS Biology, 2004):

T1: amphyphisin SH3 (AMPH_HUMAN), P49418
T1 chain: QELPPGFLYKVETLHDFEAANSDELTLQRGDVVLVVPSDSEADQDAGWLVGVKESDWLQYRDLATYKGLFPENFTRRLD


Experiments:
[1] = molecular target: endophilin SH3 (SH3G2_HUMAN), Q99962; test: SPOT array
[2] = molecular target: T1, amphyphisin SH3 (AMPH_HUMAN), P49418; test: SPOT array

Binder | normalised SPOT signal, Boehringer light units (BLU); mean over the file's lines of this peptide [1] | normalised SPOT signal, Boehringer light units (BLU); mean over the file's lines of this peptide [2]
GHRDPRRPRPAQLP [O00456 566-579] | 418 | 12.9
GEPSPKRPRGRPKG [P52926 41-54] | 59.1 | 23.6
GGASPGRPPQPEQP [Q00056 105-119] | 845 | 38.2
GEGMFRRPSEGQSL [Q92622 499-512] | 68.7 | 43.2
GEQTFKRPAEDTLY [Q96LK2 45-58] | 15.9 | 15.2
GHQEFARPSRGDLA [P51864 32-45] | 52.8 | 1570
GEVPPPRPPPPEEK [P18206 866-880] | 1140 | 45.2
GGFLPARPPRAQRH [Q9ULP6 14-28] | 14800 | 18500
AKREPRRPSWSPRL [Q96BH5 55-68] | 195 | 47.1
AALRPPRPARGSRL [Q9BZJ7 202-215] | 23700 | 17100
GEGGPQRPSRSQRR [O75145 4-17] | 1590 | 9950
AAALPAKPPNLDAA [Q96GI7 75-89] | 73 | 53.7
GGGSPEKPPSRRRP [O95153 1407-1421] | 499 | 811
GFPAPFRPSRKRSG [O43594 101-114] | 10200 | 9490
GGASPLRPPGAGPQ [Q9H013 877-891] | 80.4 | 63.9
GGRTPRRPGLQSGG [O94836 58-71] | 72.8 | 28

Binder | normalised SPOT signal, Boehringer light units (BLU); mean over the file's lines of this peptide [1] | normalised SPOT signal, Boehringer light units (BLU); mean over the file's lines of this peptide [2]
AKRHPRRPPRSPGM [Q99973 387-400] | 141 | 1220
AKMPLRRPKMKKTP [O95359 373-386] | 200 | 34.8
GGQPPPRPPPGMPH [Q15427 329-343] | 536 | 43.1
GHQEFARPSRGYLA [P13385 32-45] | 214 | 2370
GGDALGRPPRGARS [Q9H3Z7 68-81] | 741 | 2160
GGPSPSRPPPSLFS [O43823 235-249] | 1350 | 93.5
GGPRPRRPLLLPNL [Q9UQ05 736-749] | 2950 | 40.5
GGHGPERPKRPGSL [Q9HCE9 771-784] | 1320 | 7740
GGFKPSRPPRPSRP [O43584 81-95] | 22700 | 18100
GGVRLRRPSVNGEP [Q9H7M7 1141-1154] | 36 | 35.8
GEQAPARPPRNVQA [Q9UM81 410-423] | 527 | 3470
GFGVLRRPRPTPGD [Q9H5X0 195-208] | 74.2 | 38.4
GESRIRRPMNAFMV [Q9H6I2 64-77] | 138 | 46.4
GESRLKRPSVLISA [Q13319 50-63] | 0 | 31.9
GHGEPRRPPSDPLA [Q14349 378-391] | 65.1 | 20.6
